Reference: IntAct's records for PubMed 25938661

B1: Hemojuvelin (Homo sapiens), Q6ZVN8-1 (parent)
chain: MGEPGQSPSPRSSHGSPPTLSTLTLLLLLCGHAHSQCKILRCNAEYVSSTLSLRGGGSSGALRGGGGGGRGGGVGSGGLCRALRSYALCTRRTARTCRGDLAFHSAVHGIEDLMIQHNCSRQGPTAPPPPRGPALPGAGSGLPAPDPCDYEGRFSRLHGRPPGFLHCASFGDPHVRSFHHHFHTCRVQGAWPLLDNDFLFVQATSSPMALGANATATRKLTIIFKNMQECIDQKVYQAEVDNLPVAFEDGSINGGDRPGGSSLSIQTANPGNHVEIQAAYIGTTIIIRQTAGQLSFSIKVAEDVAMAFSAEQDLQLCVGGCPPSQRLSRSERNRRGAITIDTARRLCKEGLPVEDAYFHSCVFDVLISGDPNFTVAAQAALEDARAFLPDLEKLHLFPSDAGVPLSSATLLAPLLSGLFVLWLCIQ
partner: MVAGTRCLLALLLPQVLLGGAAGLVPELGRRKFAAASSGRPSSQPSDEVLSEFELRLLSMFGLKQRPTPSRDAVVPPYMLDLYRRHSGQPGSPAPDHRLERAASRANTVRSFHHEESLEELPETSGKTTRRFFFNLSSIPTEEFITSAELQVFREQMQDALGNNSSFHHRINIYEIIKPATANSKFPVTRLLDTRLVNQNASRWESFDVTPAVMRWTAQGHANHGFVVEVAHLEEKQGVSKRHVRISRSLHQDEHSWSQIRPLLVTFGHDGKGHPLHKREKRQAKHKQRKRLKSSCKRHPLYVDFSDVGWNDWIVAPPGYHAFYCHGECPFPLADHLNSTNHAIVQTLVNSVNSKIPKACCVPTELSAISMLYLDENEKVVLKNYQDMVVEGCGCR
B2: Repulsive guidance molecule B (Homo sapiens), Q6NW40 (parent)
chain: MGLRAAPSSAAAAAAEVEQRRSPGLCPPPLELLLLLLFSLGLLHAGDCQQPAQCRIQKCTTDFVSLTSHLNSAVDGFDSEFCKALRAYAGCTQRTSKACRGNLVYHSAVLGISDLMSQRNCSKDGPTSSTNPEVTHDPCNYHSHAGAREHRRGDQNPPSYLFCGLFGDPHLRTFKDNFQTCKVEGAWPLIDNNYLSVQVTNVPVVPGSSATATNKITIIFKAHHECTDQKVYQAVTDDLPAAFVDGTTSGGDSDAKSLRIVERESGHYVEMHARYIGTTVFVRQVGRYLTLAIRMPEDLAMSYEESQDLQLCVNGCPLSERIDDGQGQVSAILGHSLPRTSLVQAWPGYTLETANTQCHEKMPVKDIYFQSCVFDLLTTGDANFTAAAHSALEDVEALHPRKERWHIFPSSGNGTPRGGSDLSVSLGLTCLILIVFL
partner: B1 partner

Variants of: B1
Settings: with bmp2_human BMP2, P12643

| Variant | effect of a mutation on the interaction |
| --- | --- |
| MGEPGQSPSPRSSHGSPPTLSTLTLLLLLCGHAHSQCKILRCNAEYVSSTLSLRGGGSSGALRGGGGGGRGGGVGSGGLCRALRSYALCTRRTARTCRRDLAFHSAVHGIEDLMIQHNCSRQGPTAPPPPRGPALPGAGSGLPAPDPCDYEGRFSRLHGRPPGFLHCASFGDPHVRSFHHHFHTCRVQGAWPLLDNDFLFVQATSSPMALGANATATRKLTIIFKNMQECIDQKVYQAEVDNLPVAFEDGSINGGDRPGGSSLSIQTANPGNHVEIQAAYIGTTIIIRQTAGQLSFSIKVAEDVAMAFSAEQDLQLCVGGCPPSQRLSRSERNRRGAITIDTARRLCKEGLPVEDAYFHSCVFDVLISGDPNFTVAAQAALEDARAFLPDLEKLHLFPSDAGVPLSSATLLAPLLSGLFVLWLCIQ [G99R] | decreasing interaction strength |
| MGEPGQSPSPRSSHGSPPTLSTLTLLLLLCGHAHSQCKILRCNAEYVSSTLSLRGGGSSGALRGGGGGGRGGGVGSGGLCRALRSYALCTRRTARTCRGDPAFHSAVHGIEDLMIQHNCSRQGPTAPPPPRGPALPGAGSGLPAPDPCDYEGRFSRLHGRPPGFLHCASFGDPHVRSFHHHFHTCRVQGAWPLLDNDFLFVQATSSPMALGANATATRKLTIIFKNMQECIDQKVYQAEVDNLPVAFEDGSINGGDRPGGSSLSIQTANPGNHVEIQAAYIGTTIIIRQTAGQLSFSIKVAEDVAMAFSAEQDLQLCVGGCPPSQRLSRSERNRRGAITIDTARRLCKEGLPVEDAYFHSCVFDVLISGDPNFTVAAQAALEDARAFLPDLEKLHLFPSDAGVPLSSATLLAPLLSGLFVLWLCIQ [L101P] | decreasing interaction strength |

Variants of: B2
Settings: with bmp2_human BMP2, P12643

| Variant | effect of a mutation on the interaction |
| --- | --- |
| MGLRAAPSSAAAAAAEVEQRRSPGLCPPPLELLLLLLFSLGLLHAGDCQQPAQCRIQKCTTDFVSLTSHLNSAVDGFDSEFCKALRAYAGCTQRTSKACRGNLVYRSAVLGISDLMSQRNCSKDGPTSSTNPEVTHDPCNYHSHAGAREHRRGDQNPPSYLFCGLFGDPHLRTFKDNFQTCKVEGAWPLIDNNYLSVQVTNVPVVPGSSATATNKITIIFKAHHECTDQKVYQAVTDDLPAAFVDGTTSGGDSDAKSLRIVERESGHYVEMHARYIGTTVFVRQVGRYLTLAIRMPEDLAMSYEESQDLQLCVNGCPLSERIDDGQGQVSAILGHSLPRTSLVQAWPGYTLETANTQCHEKMPVKDIYFQSCVFDLLTTGDANFTAAAHSALEDVEALHPRKERWHIFPSSGNGTPRGGSDLSVSLGLTCLILIVFL [H106R] | decreasing interaction strength |
